To fix the notation:
B1: library; numbered along this chain (parent)
chain: MAAAAAAAAEQQSSNGPVKKSMREKAVERRSVNKEHNSNFKAGYIPIDEDRLHKTGLRGRKGNLAICVIILLFILAVINLIITLVIWAVIRIGPNGCDSMEFHESGLLRFKQVSDMGVIHPLYKSTVGGRRNENLVITGNNQPIVFQQGTTKLSVENNKTSITSDIGMQFFDPRTQNILFSTDYETHEFHLPSGVKSLNVQKASTERITSNATSDLNIKVDGRAIVRGNEGVFIMGKTIEFHMGGNMELKAENSIILNGSVMVSTTRLPSSSSGDQLGSGDWVRYKLCMCADGTLFKVQVTSQNMGCQISDNPCGNTH

These results are taken from the supplement of paper PMC10266784.

This data set covers variants of B1. Briefly: SGCB cell-surface expression functional score (HA stain, bin4 vs bin1, normalised to synonymous) (log10 ratio); higher = more cell-surface SGCB (functional). An outline of the steps: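 Sorting and sequencing yield the functional score, defined as the log ratio of a variant's highest-bin frequency to its lowest-bin frequency, with the median taken over codons and replicate transductions. The libraries, codon-saturation sets of HA-tagged, YFP-fused human beta-sarcoglycan, went into HEK293 cells stably carrying alpha-, gamma- and delta-sarcoglycan by duplicate lentiviral transduction at MOI <0.1. Cells were stained on ice with Alexa Fluor 647 anti-HA, fixed and split into four 5% intensity bins, and synonymous variants were scaled per section to mean 0, SD 0.5.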
As for MAAAAAAAAEQQSSNGPVKKSMREKAVERRSVNKEHNSNFKAGYIPIDEDRLHKTGLRGRKGNLAICVIILLFILAVINLIITLVIWAVIRIGPNGCDSMEFHESGLLRFKQVSDMGVIHPLYKSTVGGRRNENLVITGNNQPIVFQQGTTKLSVELNKTSITSDIGMQFFDPRTQNILFSTDYETHEFHLPSGVKSLNVQKASTERITSNATSDLNIKVDGRAIVRGNEGVFIMGKTIEFHMGGNMELKAENSIILNGSVMVSTTRLPSSSSGDQLGSGDWVRYKLCMCADGTLFKVQVTSQNMGCQISDNPCGNTH [N157L], the “SGCB cell-surface expression functional score (log10)” value was 0.19. Next, MAAAAAAAAEQQSSNGPVKKSMREKAVERRSVNKEHNSNFKAGYIPIDEDRLHKTGLRGRKGNLAICVIILLFILAVINLIITLVIWAVIRIGPNGCDSMEFHESGLLRFKQVSDMGVIHPLYKSTVGGRRNENLVITGNNQPIVFQQGTTKLSVEDNKTSITSDIGMQFFDPRTQNILFSTDYETHEFHLPSGVKSLNVQKASTERITSNATSDLNIKVDGRAIVRGNEGVFIMGKTIEFHMGGNMELKAENSIILNGSVMVSTTRLPSSSSGDQLGSGDWVRYKLCMCADGTLFKVQVTSQNMGCQISDNPCGNTH [N157D]: -0.02; MAAAAAAAAEQQSSNGPVKKSMREKAVERRSVNKEHNSNFKAGYIPIDEDRLHKTGLRGRKGNLAICVIILLFILAVINLIITLVIWAVIRIGPNGCDSMEFHESGLLRFKQVSDMGVIHPLYKSTVGGRRNENLVITGNNQPIVFQQGTTKLSVEGNKTSITSDIGMQFFDPRTQNILFSTDYETHEFHLPSGVKSLNVQKASTERITSNATSDLNIKVDGRAIVRGNEGVFIMGKTIEFHMGGNMELKAENSIILNGSVMVSTTRLPSSSSGDQLGSGDWVRYKLCMCADGTLFKVQVTSQNMGCQISDNPCGNTH [N157G]: 0.52; MAAAAAAAAEQQSSNGPVKKSMREKAVERRSVNKEHNSNFKAGYIPIDEDRLHKTGLRGRKGNLAICVIILLFILAVINLIITLVIWAVIRIGPNGCDSMEFHESGLLRFKQVSDMGVIHPLYKSTVGGRRNENLVITGNNQPIVFQQGTTKLSVECNKTSITSDIGMQFFDPRTQNILFSTDYETHEFHLPSGVKSLNVQKASTERITSNATSDLNIKVDGRAIVRGNEGVFIMGKTIEFHMGGNMELKAENSIILNGSVMVSTTRLPSSSSGDQLGSGDWVRYKLCMCADGTLFKVQVTSQNMGCQISDNPCGNTH [N157C]: 0.02. On to MAAAAAAAAEQQSSNGPVKKSMREKAVERRSVNKEHNSNFKAGYIPIDEDRLHKTGLRGRKGNLAICVIILLFILAVINLIITLVIWAVIRIGPNGCDSMEFHESGLLRFKQVSDMGVIHPLYKSTVGGRRNENLVITGNNQPIVFQQGTTKLSVEKNKTSITSDIGMQFFDPRTQNILFSTDYETHEFHLPSGVKSLNVQKASTERITSNATSDLNIKVDGRAIVRGNEGVFIMGKTIEFHMGGNMELKAENSIILNGSVMVSTTRLPSSSSGDQLGSGDWVRYKLCMCADGTLFKVQVTSQNMGCQISDNPCGNTH [N157K], for which the “SGCB cell-surface expression functional score (log10)” value was -0.19. For the variant MAAAAAAAAEQQSSNGPVKKSMREKAVERRSVNKEHNSNFKAGYIPIDEDRLHKTGLRGRKGNLAICVIILLFILAVINLIITLVIWAVIRIGPNGCDSMEFHESGLLRFKQVSDMGVIHPLYKSTVGGRRNENLVITGNNQPIVFQQGTTKLSVEHNKTSITSDIGMQFFDPRTQNILFSTDYETHEFHLPSGVKSLNVQKASTERITSNATSDLNIKVDGRAIVRGNEGVFIMGKTIEFHMGGNMELKAENSIILNGSVMVSTTRLPSSSSGDQLGSGDWVRYKLCMCADGTLFKVQVTSQNMGCQISDNPCGNTH [N157H], the “SGCB cell-surface expression functional score (log10)” value is 0.06. As for MAAAAAAAAEQQSSNGPVKKSMREKAVERRSVNKEHNSNFKAGYIPIDEDRLHKTGLRGRKGNLAICVIILLFILAVINLIITLVIWAVIRIGPNGCDSMEFHESGLLRFKQVSDMGVIHPLYKSTVGGRRNENLVITGNNQPIVFQQGTTKLSVEMNKTSITSDIGMQFFDPRTQNILFSTDYETHEFHLPSGVKSLNVQKASTERITSNATSDLNIKVDGRAIVRGNEGVFIMGKTIEFHMGGNMELKAENSIILNGSVMVSTTRLPSSSSGDQLGSGDWVRYKLCMCADGTLFKVQVTSQNMGCQISDNPCGNTH [N157M], the figure is 0.06; as for MAAAAAAAAEQQSSNGPVKKSMREKAVERRSVNKEHNSNFKAGYIPIDEDRLHKTGLRGRKGNLAICVIILLFILAVINLIITLVIWAVIRIGPNGCDSMEFHESGLLRFKQVSDMGVIHPLYKSTVGGRRNENLVITGNNQPIVFQQGTTKLSVEFNKTSITSDIGMQFFDPRTQNILFSTDYETHEFHLPSGVKSLNVQKASTERITSNATSDLNIKVDGRAIVRGNEGVFIMGKTIEFHMGGNMELKAENSIILNGSVMVSTTRLPSSSSGDQLGSGDWVRYKLCMCADGTLFKVQVTSQNMGCQISDNPCGNTH [N157F], -0.21; as for MAAAAAAAAEQQSSNGPVKKSMREKAVERRSVNKEHNSNFKAGYIPIDEDRLHKTGLRGRKGNLAICVIILLFILAVINLIITLVIWAVIRIGPNGCDSMEFHESGLLRFKQVSDMGVIHPLYKSTVGGRRNENLVITGNNQPIVFQQGTTKLSVEENKTSITSDIGMQFFDPRTQNILFSTDYETHEFHLPSGVKSLNVQKASTERITSNATSDLNIKVDGRAIVRGNEGVFIMGKTIEFHMGGNMELKAENSIILNGSVMVSTTRLPSSSSGDQLGSGDWVRYKLCMCADGTLFKVQVTSQNMGCQISDNPCGNTH [N157E], -0.18. Next, MAAAAAAAAEQQSSNGPVKKSMREKAVERRSVNKEHNSNFKAGYIPIDEDRLHKTGLRGRKGNLAICVIILLFILAVINLIITLVIWAVIRIGPNGCDSMEFHESGLLRFKQVSDMGVIHPLYKSTVGGRRNENLVITGNNQPIVFQQGTTKLSVEINKTSITSDIGMQFFDPRTQNILFSTDYETHEFHLPSGVKSLNVQKASTERITSNATSDLNIKVDGRAIVRGNEGVFIMGKTIEFHMGGNMELKAENSIILNGSVMVSTTRLPSSSSGDQLGSGDWVRYKLCMCADGTLFKVQVTSQNMGCQISDNPCGNTH [N157I]: -0.06; MAAAAAAAAEQQSSNGPVKKSMREKAVERRSVNKEHNSNFKAGYIPIDEDRLHKTGLRGRKGNLAICVIILLFILAVINLIITLVIWAVIRIGPNGCDSMEFHESGLLRFKQVSDMGVIHPLYKSTVGGRRNENLVITGNNQPIVFQQGTTKLSVEANKTSITSDIGMQFFDPRTQNILFSTDYETHEFHLPSGVKSLNVQKASTERITSNATSDLNIKVDGRAIVRGNEGVFIMGKTIEFHMGGNMELKAENSIILNGSVMVSTTRLPSSSSGDQLGSGDWVRYKLCMCADGTLFKVQVTSQNMGCQISDNPCGNTH [N157A]: 0.08; MAAAAAAAAEQQSSNGPVKKSMREKAVERRSVNKEHNSNFKAGYIPIDEDRLHKTGLRGRKGNLAICVIILLFILAVINLIITLVIWAVIRIGPNGCDSMEFHESGLLRFKQVSDMGVIHPLYKSTVGGRRNENLVITGNNQPIVFQQGTTKLSVVNNKTSITSDIGMQFFDPRTQNILFSTDYETHEFHLPSGVKSLNVQKASTERITSNATSDLNIKVDGRAIVRGNEGVFIMGKTIEFHMGGNMELKAENSIILNGSVMVSTTRLPSSSSGDQLGSGDWVRYKLCMCADGTLFKVQVTSQNMGCQISDNPCGNTH [E156V]: -0.3.

MAAAAAAAAEQQSSNGPVKKSMREKAVERRSVNKEHNSNFKAGYIPIDEDRLHKTGLRGRKGNLAICVIILLFILAVINLIITLVIWAVIRIGPNGCDSMEFHESGLLRFKQVSDMGVIHPLYKSTVGGRRNENLVITGNNQPIVFQQGTTKLSVWNNKTSITSDIGMQFFDPRTQNILFSTDYETHEFHLPSGVKSLNVQKASTERITSNATSDLNIKVDGRAIVRGNEGVFIMGKTIEFHMGGNMELKAENSIILNGSVMVSTTRLPSSSSGDQLGSGDWVRYKLCMCADGTLFKVQVTSQNMGCQISDNPCGNTH [E156W]: the “SGCB cell-surface expression functional score (log10)” value was -0.4.

Take MAAAAAAAAEQQSSNGPVKKSMREKAVERRSVNKEHNSNFKAGYIPIDEDRLHKTGLRGRKGNLAICVIILLFILAVINLIITLVIWAVIRIGPNGCDSMEFHESGLLRFKQVSDMGVIHPLYKSTVGGRRNENLVITGNNQPIVFQQGTTKLSVQNNKTSITSDIGMQFFDPRTQNILFSTDYETHEFHLPSGVKSLNVQKASTERITSNATSDLNIKVDGRAIVRGNEGVFIMGKTIEFHMGGNMELKAENSIILNGSVMVSTTRLPSSSSGDQLGSGDWVRYKLCMCADGTLFKVQVTSQNMGCQISDNPCGNTH [E156Q]: the “SGCB cell-surface expression functional score (log10)” value came out at 0.19. In the case of MAAAAAAAAEQQSSNGPVKKSMREKAVERRSVNKEHNSNFKAGYIPIDEDRLHKTGLRGRKGNLAICVIILLFILAVINLIITLVIWAVIRIGPNGCDSMEFHESGLLRFKQVSDMGVIHPLYKSTVGGRRNENLVITGNNQPIVFQQGTTKLSVYNNKTSITSDIGMQFFDPRTQNILFSTDYETHEFHLPSGVKSLNVQKASTERITSNATSDLNIKVDGRAIVRGNEGVFIMGKTIEFHMGGNMELKAENSIILNGSVMVSTTRLPSSSSGDQLGSGDWVRYKLCMCADGTLFKVQVTSQNMGCQISDNPCGNTH [E156Y], the “SGCB cell-surface expression functional score (log10)” value was -0.38.

For the variant MAAAAAAAAEQQSSNGPVKKSMREKAVERRSVNKEHNSNFKAGYIPIDEDRLHKTGLRGRKGNLAICVIILLFILAVINLIITLVIWAVIRIGPNGCDSMEFHESGLLRFKQVSDMGVIHPLYKSTVGGRRNENLVITGNNQPIVFQQGTTKLSVTNNKTSITSDIGMQFFDPRTQNILFSTDYETHEFHLPSGVKSLNVQKASTERITSNATSDLNIKVDGRAIVRGNEGVFIMGKTIEFHMGGNMELKAENSIILNGSVMVSTTRLPSSSSGDQLGSGDWVRYKLCMCADGTLFKVQVTSQNMGCQISDNPCGNTH [E156T], the “SGCB cell-surface expression functional score (log10)” value was -0.18.

Regarding MAAAAAAAAEQQSSNGPVKKSMREKAVERRSVNKEHNSNFKAGYIPIDEDRLHKTGLRGRKGNLAICVIILLFILAVINLIITLVIWAVIRIGPNGCDSMEFHESGLLRFKQVSDMGVIHPLYKSTVGGRRNENLVITGNNQPIVFQQGTTKLSVSNNKTSITSDIGMQFFDPRTQNILFSTDYETHEFHLPSGVKSLNVQKASTERITSNATSDLNIKVDGRAIVRGNEGVFIMGKTIEFHMGGNMELKAENSIILNGSVMVSTTRLPSSSSGDQLGSGDWVRYKLCMCADGTLFKVQVTSQNMGCQISDNPCGNTH [E156S], the “SGCB cell-surface expression functional score (log10)” value was -0.22. As for MAAAAAAAAEQQSSNGPVKKSMREKAVERRSVNKEHNSNFKAGYIPIDEDRLHKTGLRGRKGNLAICVIILLFILAVINLIITLVIWAVIRIGPNGCDSMEFHESGLLRFKQVSDMGVIHPLYKSTVGGRRNENLVITGNNQPIVFQQGTTKLSVRNNKTSITSDIGMQFFDPRTQNILFSTDYETHEFHLPSGVKSLNVQKASTERITSNATSDLNIKVDGRAIVRGNEGVFIMGKTIEFHMGGNMELKAENSIILNGSVMVSTTRLPSSSSGDQLGSGDWVRYKLCMCADGTLFKVQVTSQNMGCQISDNPCGNTH [E156R], the “SGCB cell-surface expression functional score (log10)” value was -0.38. Next, MAAAAAAAAEQQSSNGPVKKSMREKAVERRSVNKEHNSNFKAGYIPIDEDRLHKTGLRGRKGNLAICVIILLFILAVINLIITLVIWAVIRIGPNGCDSMEFHESGLLRFKQVSDMGVIHPLYKSTVGGRRNENLVITGNNQPIVFQQGTTKLSVPNNKTSITSDIGMQFFDPRTQNILFSTDYETHEFHLPSGVKSLNVQKASTERITSNATSDLNIKVDGRAIVRGNEGVFIMGKTIEFHMGGNMELKAENSIILNGSVMVSTTRLPSSSSGDQLGSGDWVRYKLCMCADGTLFKVQVTSQNMGCQISDNPCGNTH [E156P]: -0.84.
